The experiment concerns the target endogenous BMP released from the ES cells (BMP4) (mouse) (UniProt P21275). Briefly: cell-based or functional assay.
Chain of UniProt P21275 (P21275 293-408 limits assumed): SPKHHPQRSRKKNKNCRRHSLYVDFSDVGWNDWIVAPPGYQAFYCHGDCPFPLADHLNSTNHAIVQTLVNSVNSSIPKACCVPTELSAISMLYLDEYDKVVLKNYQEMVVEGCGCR

Turning to “mouse Cerberus-like (mCer-1) protein (from UniProt O55233 18-272) (ligand)”, the numbers of primary neural stem cell colonies generated (ES cells in LIF, 20% v/v mCer-1 supernatant) stood at 50 % increase.
